In this assay the target is alpha-enolase (baker's yeast) (baker's yeast) (UniProt P00924). As to the kind of experiment: cross-linking; 1 mg/ml alpha-enolase in PBS with BVSS-Me, BVSS-Et, BVSS-Ph, Alkyne-BVSC or DSBSO (1 mM, 1 h, 37 °C; DSBSO 30 min RT); SDS-PAGE, Coomassie stain; DMSO as negative control.

As usually defined, the stoichiometry N is the number of molecules, sites or subunits per partner or assembly. The substance “alpha-enolase (baker's yeast) (from UniProt P00924 1-437) (enzyme)” came in with a stoichiometry N of 2.

For the origin of these results see paper PMC12682122.
